# Measurements taken from article PMC4267192.
# Biological target: CCA1-GST (UniProt P92973)
# Test: EMSA
# Settings: 25 mM HEPES-KOH pH 7.5, 50 mM KCl, 2.5 mM DTT, 1 mM PMSF, 10% glycerol, 1 ug poly-dIdC in 10 ul, 20 min on ice (final concentrations calculated from 5X …)
# Sequence of CCA1-GST (P92973 whole entry): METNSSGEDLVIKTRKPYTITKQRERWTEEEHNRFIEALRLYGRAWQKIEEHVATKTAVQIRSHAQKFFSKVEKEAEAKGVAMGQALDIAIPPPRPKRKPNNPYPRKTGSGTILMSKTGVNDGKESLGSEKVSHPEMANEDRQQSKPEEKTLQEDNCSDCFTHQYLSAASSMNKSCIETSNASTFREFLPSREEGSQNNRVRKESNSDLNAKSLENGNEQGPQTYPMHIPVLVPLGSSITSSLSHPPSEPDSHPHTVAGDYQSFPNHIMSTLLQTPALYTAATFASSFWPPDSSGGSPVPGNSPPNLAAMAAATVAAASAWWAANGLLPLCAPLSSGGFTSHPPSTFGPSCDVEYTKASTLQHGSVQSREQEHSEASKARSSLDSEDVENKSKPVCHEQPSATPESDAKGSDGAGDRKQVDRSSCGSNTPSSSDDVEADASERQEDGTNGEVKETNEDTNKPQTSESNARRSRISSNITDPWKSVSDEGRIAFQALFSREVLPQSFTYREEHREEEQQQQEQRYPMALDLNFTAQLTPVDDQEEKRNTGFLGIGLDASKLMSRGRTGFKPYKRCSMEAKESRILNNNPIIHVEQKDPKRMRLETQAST
row,Sequence,binding
1,AATCAATTCCTCTCTCTTAAAACAAAGAAGAAAAAAACAGAGAAGAAGAAGAAAAAATCTATCTCCGCCATGAACGCGAGAGCTCTTCTTTGCTCTTCAAATATTCACTCTCTCTAC (double strand) [PHT4;1 promoter probe 3],binds
2,GTTAGCTTACGAGCATAAATTGCGAGATCTATCTTACTTCCCCAATGAAAAAAAAATCTCAAAGATTTGGAAGTAGACCTATGAATAGAATTACAATAATACGGCAATACCAATAACAA (double strand) [PHT4;1 promoter probe 2],binds
